What all share (conditions): protein: recombinant; label: 5' fluorescein; hairpin
Data set [1] addresses T1, IRP1 (iron regulatory protein 1) (rabbit, UniProt Q01059 1-889).
T1 sequence: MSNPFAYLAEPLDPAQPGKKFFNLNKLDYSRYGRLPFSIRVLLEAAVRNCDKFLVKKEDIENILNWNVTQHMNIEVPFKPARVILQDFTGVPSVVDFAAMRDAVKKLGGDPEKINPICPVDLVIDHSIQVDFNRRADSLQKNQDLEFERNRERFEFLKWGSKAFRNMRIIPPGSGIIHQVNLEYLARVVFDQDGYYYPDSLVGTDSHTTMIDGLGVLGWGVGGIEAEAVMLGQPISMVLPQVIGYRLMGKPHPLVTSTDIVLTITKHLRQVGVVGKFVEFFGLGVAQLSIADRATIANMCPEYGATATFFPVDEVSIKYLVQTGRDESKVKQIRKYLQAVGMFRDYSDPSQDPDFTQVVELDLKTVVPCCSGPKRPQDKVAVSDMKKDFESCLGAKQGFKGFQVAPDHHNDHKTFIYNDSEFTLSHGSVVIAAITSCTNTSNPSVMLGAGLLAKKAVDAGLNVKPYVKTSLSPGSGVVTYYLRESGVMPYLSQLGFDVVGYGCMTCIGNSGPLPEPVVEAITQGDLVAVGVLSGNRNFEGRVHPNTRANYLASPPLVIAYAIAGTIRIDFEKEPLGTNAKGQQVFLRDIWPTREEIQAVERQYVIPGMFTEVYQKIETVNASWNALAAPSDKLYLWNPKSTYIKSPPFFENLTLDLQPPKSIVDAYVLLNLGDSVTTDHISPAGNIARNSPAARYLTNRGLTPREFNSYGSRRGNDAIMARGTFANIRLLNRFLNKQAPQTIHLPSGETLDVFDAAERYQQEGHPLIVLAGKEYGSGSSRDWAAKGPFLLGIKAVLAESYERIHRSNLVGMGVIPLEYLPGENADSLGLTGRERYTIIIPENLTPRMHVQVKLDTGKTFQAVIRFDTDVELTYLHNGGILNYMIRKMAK
Description: fluorescence anisotropy; 10 °C, no Mn2+; 40 mM HEPES pH 7.2, 100 mM KCl, 5-30 °C, ±50 µM Mn2+; labeled RNA 50 nM or 100 nM (Methods).

Data set [2] concerns the target T1, IRP1 (iron regulatory protein 1). The data set can be described thus: fluorescence anisotropy; 25 °C, no Mn2+; 40 mM HEPES pH 7.2, 100 mM KCl, 5-30 °C, ±50 µM Mn2+; labeled RNA 50 nM or 100 nM (Methods). Background: Polarisation of emitted light reports the rotation of a fluorescent probe.
The target is the same in data set [3]. Description: fluorescence anisotropy; 15 °C, no Mn2+; 40 mM HEPES pH 7.2, 100 mM KCl, 5-30 °C, ±50 µM Mn2+; labeled RNA 50 nM or 100 nM (Methods).
The target is the same in data set [4]. Description: fluorescence anisotropy; 20 °C, no Mn2+; 40 mM HEPES pH 7.2, 100 mM KCl, 5-30 °C, ±50 µM Mn2+; labeled RNA 50 nM or 100 nM (Methods).
For data set [5] the target is unchanged. The data set can be described thus: fluorescence anisotropy; 5 °C, no Mn2+; 40 mM HEPES pH 7.2, 100 mM KCl, 5-30 °C, ±50 µM Mn2+; labeled RNA 50 nM or 100 nM (Methods).
Data set [6] has the same target. The data set can be described thus: fluorescence anisotropy; 30 °C, no Mn2+; 40 mM HEPES pH 7.2, 100 mM KCl, 5-30 °C, ±50 µM Mn2+; labeled RNA 50 nM or 100 nM (Methods).

B1: FRT IRE-RNA (ferritin IRE) (structured_RNA)
RNA: GUUCUUGCUUCAACAGUGUUUGAACGGAAC
Broadly, the Kd is the free concentration of one partner at which half of the binding sites on the other are occupied at equilibrium, for simple one-to-one binding. For B1, the dissociation constant Kd in data set [1] turned out to be 7 ± 0.2 nM; in data set [2], 14.2 ± 0.3 nM; in data set [3] it was 8.6 ± 0.3 nM; in data set [4] it was 11.7 ± 0.4 nM; in data set [5], 4.6 ± 0.2 nM; in data set [6], 19.2 ± 0.4 nM.

B2: ACO2 IRE-RNA (mitochondrial aconitase IRE) (structured_RNA)
RNA: CCUCAUCUUUGUCAGUGCACAAAAUGGCG
As for B2, the Kd in data set [1] is 69.6 ± 5 nM; in data set [2], 129 ± 3.3 nM; in data set [3], 89 ± 3 nM; in data set [4], 101 ± 7 nM; in data set [5], 55.9 ± 3 nM; in data set [6] it was 155 ± 4 nM.

The record behind these values is publication PMC5561112, “Thermodynamic and Kinetic Analyses of Iron Response Element (IRE)-mRNA Binding to Iron Regulatory Protein, IRP1”.
